In general, Kd refers to a measure of binding affinity in units of concentration. A higher Kd goes with weaker binding.

One experiment addresses T1, MUTE-SCRM heterodimer (A. thaliana, UniProt Q9M8K6 1-202; Q9LSE2 1-494).
T1 construct: MUTE, Arabidopsis thaliana, residues 1-202, in pET28a; also called SCRM-MUTE heterodimer; source: E. coli BL21, purified (MUTE: Ni-NTA, gel filtration; SCRM: glutathione resin, thrombin, gel filtration); not shown: GST, N-terminal, cleaved
T1 sequence (looked up) 1: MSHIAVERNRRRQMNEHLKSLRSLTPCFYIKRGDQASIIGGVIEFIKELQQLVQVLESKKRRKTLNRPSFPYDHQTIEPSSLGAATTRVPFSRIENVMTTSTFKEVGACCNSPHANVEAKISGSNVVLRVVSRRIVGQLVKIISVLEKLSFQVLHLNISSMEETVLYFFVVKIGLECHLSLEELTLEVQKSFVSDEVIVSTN
T1 sequence (looked up) 2: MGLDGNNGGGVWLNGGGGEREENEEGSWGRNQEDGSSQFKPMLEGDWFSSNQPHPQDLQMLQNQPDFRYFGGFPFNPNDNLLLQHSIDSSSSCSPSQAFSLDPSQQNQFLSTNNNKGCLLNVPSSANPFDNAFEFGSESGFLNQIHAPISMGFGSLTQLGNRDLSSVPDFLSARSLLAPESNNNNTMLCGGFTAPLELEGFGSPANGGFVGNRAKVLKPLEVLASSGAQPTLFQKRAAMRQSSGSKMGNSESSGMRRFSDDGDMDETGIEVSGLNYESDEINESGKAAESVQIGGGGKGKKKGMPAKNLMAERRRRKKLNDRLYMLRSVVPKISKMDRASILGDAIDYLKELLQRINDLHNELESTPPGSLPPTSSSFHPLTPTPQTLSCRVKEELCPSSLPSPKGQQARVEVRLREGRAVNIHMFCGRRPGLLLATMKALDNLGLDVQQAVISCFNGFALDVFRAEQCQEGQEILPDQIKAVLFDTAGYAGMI
Description: BLI; Octet Red96; Ni-NTA probes loaded with 500 nM His tagged BPC1 or BPC2; heterodimer as analyte at seven concentrations (200 to 3.12 nM by the methods); 30 °C; 1× PBS with 0.02% Tween 20; 1:1 model, Kd by steady-state analysis. The settings on record: both partners purified.

For a further experiment, the target named is T2, His tagged BPC2 (1-279) (A. thaliana, UniProt Q9LDE2 1-279).
T2 chain: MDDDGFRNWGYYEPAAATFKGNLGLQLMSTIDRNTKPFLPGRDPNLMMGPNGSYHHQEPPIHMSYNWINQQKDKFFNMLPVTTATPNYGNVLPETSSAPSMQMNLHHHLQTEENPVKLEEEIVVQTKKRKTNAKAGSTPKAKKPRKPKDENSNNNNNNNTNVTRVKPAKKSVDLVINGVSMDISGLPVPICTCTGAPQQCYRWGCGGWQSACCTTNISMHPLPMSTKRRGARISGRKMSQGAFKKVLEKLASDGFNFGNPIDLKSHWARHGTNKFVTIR
Description: BLI.

A further experiment addresses T3, His tagged BPC1 (1-283) (A. thaliana, UniProt Q9SKD0 1-283).
T3 chain: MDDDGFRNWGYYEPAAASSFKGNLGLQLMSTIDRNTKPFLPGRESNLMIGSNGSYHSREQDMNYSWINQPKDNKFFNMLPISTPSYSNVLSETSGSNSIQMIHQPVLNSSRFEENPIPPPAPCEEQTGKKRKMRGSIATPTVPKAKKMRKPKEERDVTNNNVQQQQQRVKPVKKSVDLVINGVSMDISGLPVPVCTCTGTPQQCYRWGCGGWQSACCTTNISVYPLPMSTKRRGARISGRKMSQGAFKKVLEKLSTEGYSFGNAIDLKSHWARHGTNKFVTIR
Description: BLI.

B1: His tagged BPC2 (1-279) (natural protein, A. thaliana, UniProt Q9LDE2 1-279, looked up)
chain: MDDDGFRNWGYYEPAAATFKGNLGLQLMSTIDRNTKPFLPGRDPNLMMGPNGSYHHQEPPIHMSYNWINQQKDKFFNMLPVTTATPNYGNVLPETSSAPSMQMNLHHHLQTEENPVKLEEEIVVQTKKRKTNAKAGSTPKAKKPRKPKDENSNNNNNNNTNVTRVKPAKKSVDLVINGVSMDISGLPVPICTCTGAPQQCYRWGCGGWQSACCTTNISMHPLPMSTKRRGARISGRKMSQGAFKKVLEKLASDGFNFGNPIDLKSHWARHGTNKFVTIR
notes: BPC2 (BASIC … 2), Arabidopsis thaliana, residues 1-279, in pET28a; source: E. coli BL21, purified (Ni-NTA, gel filtration on Superdex-200); not shown: His tag, N-terminal, kept
Consider B1, for which, in the experiment with MUTE-SCRM heterodimer, the dissociation constant Kd is 11 ± 1.6 nM.

B2: SPCH-SCRM heterodimer (complex)
chain 1: MQEIIPDFLEECEFVDTSLAGDDLFAILESLEGAGEISPTAASTPKDGTTSSKELVKDQDYENSSPKRKKQRLETRKEEDEEEEDGDGEAEEDNKQDGQQKMSHVTVERNRRKQMNEHLTVLRSLMPCFYVKRGDQASIIGGVVEYISELQQVLQSLEAKKQRKTYAEVLSPRVVPSPRPSPPVLSPRKPPLSPRINHHQIHHHLLLPPISPRTPQPTSPYRAIPPQLPLIPQPPLRSYSSLASCSSLGDPPPYSPASSSSSPSVSSNHESSVINELVANSKSALADVEVKFSGANVLLKTVSHKIPGQVMKIIAALEDLALEILQVNINTVDETMLNSFTIKIGIECQLSAEELAQQIQQTFC
chain 2: MGLDGNNGGGVWLNGGGGEREENEEGSWGRNQEDGSSQFKPMLEGDWFSSNQPHPQDLQMLQNQPDFRYFGGFPFNPNDNLLLQHSIDSSSSCSPSQAFSLDPSQQNQFLSTNNNKGCLLNVPSSANPFDNAFEFGSESGFLNQIHAPISMGFGSLTQLGNRDLSSVPDFLSARSLLAPESNNNNTMLCGGFTAPLELEGFGSPANGGFVGNRAKVLKPLEVLASSGAQPTLFQKRAAMRQSSGSKMGNSESSGMRRFSDDGDMDETGIEVSGLNYESDEINESGKAAESVQIGGGGKGKKKGMPAKNLMAERRRRKKLNDRLYMLRSVVPKISKMDRASILGDAIDYLKELLQRINDLHNELESTPPGSLPPTSSSFHPLTPTPQTLSCRVKEELCPSSLPSPKGQQARVEVRLREGRAVNIHMFCGRRPGLLLATMKALDNLGLDVQQAVISCFNGFALDVFRAEQCQEGQEILPDQIKAVLFDTAGYAGMI
As for B2, the dissociation constant (Kd) in the experiment with His tagged BPC2 (1-279) worked out at 227 nM; in the experiment with His tagged BPC1 (1-283) it was 126 nM.

B3: His tagged BPC1 (1-283) (natural protein, A. thaliana, UniProt Q9SKD0 1-283, looked up)
chain: MDDDGFRNWGYYEPAAASSFKGNLGLQLMSTIDRNTKPFLPGRESNLMIGSNGSYHSREQDMNYSWINQPKDNKFFNMLPISTPSYSNVLSETSGSNSIQMIHQPVLNSSRFEENPIPPPAPCEEQTGKKRKMRGSIATPTVPKAKKMRKPKEERDVTNNNVQQQQQRVKPVKKSVDLVINGVSMDISGLPVPVCTCTGTPQQCYRWGCGGWQSACCTTNISVYPLPMSTKRRGARISGRKMSQGAFKKVLEKLSTEGYSFGNAIDLKSHWARHGTNKFVTIR
notes: BPC1 (BASIC … 1), Arabidopsis thaliana, residues 1-283, in pET28a; source: E. coli BL21, purified (Ni-NTA, gel filtration on Superdex-200); not shown: His tag, N-terminal, kept
With B3, binding with MUTE-SCRM heterodimer was put at a Kd of 4.8 ± 1.6 nM.

The values are drawn from paper PMC9788986, “Dynamic chromatin accessibility deploys heterotypic cis/trans-acting factors driving stomatal cell-fate commitment” (Nature Plants, 2022).
